Source: US20260070975A1 (SANTA ANA BIO, published 2026)

T1: siglec 2 expressed on HEK293 cells (UniProt P20273 20-847, limits assumed)
T1 construct: whole, on cells; also called Siglec-6 family member
T1 sequence (looked up): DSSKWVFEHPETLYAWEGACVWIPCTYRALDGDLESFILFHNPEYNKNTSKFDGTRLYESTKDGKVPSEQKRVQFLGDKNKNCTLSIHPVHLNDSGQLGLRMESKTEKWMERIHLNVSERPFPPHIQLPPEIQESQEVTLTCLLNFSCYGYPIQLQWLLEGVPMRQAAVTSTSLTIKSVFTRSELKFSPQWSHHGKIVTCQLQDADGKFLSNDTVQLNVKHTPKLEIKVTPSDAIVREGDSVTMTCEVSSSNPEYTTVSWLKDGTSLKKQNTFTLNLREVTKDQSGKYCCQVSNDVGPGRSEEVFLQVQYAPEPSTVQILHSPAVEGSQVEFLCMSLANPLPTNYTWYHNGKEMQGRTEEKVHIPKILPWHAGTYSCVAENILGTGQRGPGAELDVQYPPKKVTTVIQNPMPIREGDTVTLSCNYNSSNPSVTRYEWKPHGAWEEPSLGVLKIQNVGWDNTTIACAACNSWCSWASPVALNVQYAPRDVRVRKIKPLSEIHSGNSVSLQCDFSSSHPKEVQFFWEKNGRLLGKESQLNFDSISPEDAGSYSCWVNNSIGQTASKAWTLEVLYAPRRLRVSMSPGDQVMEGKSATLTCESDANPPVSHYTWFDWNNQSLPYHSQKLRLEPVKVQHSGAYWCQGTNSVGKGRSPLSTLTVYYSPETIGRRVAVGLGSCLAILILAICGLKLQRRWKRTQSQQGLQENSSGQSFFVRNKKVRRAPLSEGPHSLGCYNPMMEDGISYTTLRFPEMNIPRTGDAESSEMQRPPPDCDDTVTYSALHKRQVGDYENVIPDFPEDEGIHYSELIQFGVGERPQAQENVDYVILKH

B1: hRND-2 (antibody, human IgG1, kappa, V domains shown)
VH: QVQLVQSGAEVKKPGASVKVSCKASGYAFTSYWMHWVRQAPGQRLEWMGEIYPTNGGTTYAQKFQGRVTMTVDKSTSTAYMELSRLRSDDTAVYYCTIEDFYAMDYWGQGTTVTVSS
VL: DIVMTQTPLSLSVTPGQPASISCKSSQSLLDSDGKTSLNWLLQKPGQSPQRLIYLVSKLDSGVPDRFSGSGSGTDFTLKISRVEAEDVGVYYCWQGTHFPYTFGQGTKLEIKR
notes: also called humanized RND-2; hRND-H2 / hRND-L3; copies: 2 + 2
B2: hRND-5 (antibody, human IgG1, kappa, V domains shown)
VH: QVQLVQSGAEVKKPGASVKLSCKASGYAFTSYWMHWVRQAPGQRLEWIGEIYPTNGGTTYNEKFKRRATLTVDKSTSTAYMELSRLRSDDTAVYYCTIEDFYAMDYWGQGTTVTVSS
VL: DIVMTQTPLSLSVTPGQPASISCKSSQSLLDSDGKTSLNWLLQKPGQSPQRLIYLVSKLDSGVPDRFSGSGSGTDFTLKISRVEAEDVGVYYCWQGTHFPYTFGQGTKLEIKR
notes: also called humanized RND-5; hRND-H3b / hRND-L3; copies: 2 + 2
B3: hRND-3 (antibody, human IgG1, kappa, V domains shown)
VH: QVQLVQSGAEVKKPGASVKLSCKASGYAFTSYWMHWVRQAPGQRLEWIGEIYPTNGGTTYAQKFQGRATLTVDKSTSTAYMELSRLRSDDTAVYYCTIEDFYAMDYWGQGTTVTVSS
VL: DIVMTQTPLSLSVTPGQPASISCKSSQSLLDSDGKTSLNWLLQKPGQSPQRLIYLVSKLDSGVPDRFSGSGSGTDFTLKISRVEAEDVGVYYCWQGTHFPYTFGQGTKLEIKR
notes: also called humanized RND-3; hRND-H3 / hRND-L3; copies: 2 + 2
B4: hRND-4 (antibody, human IgG1, kappa, V domains shown)
VH: QVQLVQSGAEVKKPGASVKVSCKASGYAFTSYWMHWVRQAPGQRLEWMGEIYPTNGGTTYNEKFKRRVTMTVDKSTSTAYMELSRLRSDDTAVYYCTIEDFYAMDYWGQGTTVTVSS
VL: DIVMTQTPLSLSVTPGQPASISCKSSQSLLDSDGKTSLNWLLQKPGQSPQRLIYLVSKLDSGVPDRFSGSGSGTDFTLKISRVEAEDVGVYYCWQGTHFPYTFGQGTKLEIKR
notes: also called humanized RND-4; hRND-H2b / hRND-L3; copies: 2 + 2

target: T1, siglec 2 expressed on HEK293 cells; assay: flow cytometry on HEK293 cells expressing the target
Method: Cultured HEK293 cells expressing human siglec-6, cynomolgus siglec-6, or siglec 6 family members were resuspended in FACS Blocking Buffer (PBS+10% normal human serum) for 30 minutes. Following washing, cells were incubated with siglec-6 antibodies in FACS Buffer (PBS+0.5% bovine serum albumin+0.09% sodium azide) and incubated at 4° C. for 30 minutes, washed and incubated with PE-labeled anti-human secondary antibody. Cells were incubated at 4° C. for 30 minutes in the dark. Following washing, cytofluorimetric analysis was conducted using a BD FACS Symphony A3 (BD Biosciences). Cells were sorted by scatter properties and separated for single cell analysis using side scatter width vs side scatter area. Antibody binding to cells was quantitated by measuring fluorescent emissions of excitation wavelength of 561 nm using a 586/15 nm filter. Data analysis was performed using FlowJo Software.

Binding result, no binding:
B1, B2, B3, B4
